# Bridge positions count the residues as written; N and C are the ends. Peptide text beside a SMILES is read from it.
# Assays:
# [1] = molecular target: T1, GC-C (Ugn receptor) in T84 cell membranes (Homo sapiens, UniProt P25092); test: Competitive Ugn binding assay (125I-Y-Ugn, T84 cell membranes); conditions: pH 4.5, 1 h at 25°C; for Ki: displacement of 1 nmol/L 125I-Y-Ugn, T84 cell membranes, triplicate, rat Ugn n = 8 (R2 0.9985), rat Gn n = 3 (R2 0.9587), rat proUgn n = 3 (R2 0.9677)
# T1 construct: plasma membranes derived from the T84 cell line, which abundantly expresses GC‐C; endogenous in cells; host or cells: T84 cell membranes
# Protocol: Urine samples were first dialyzed against deionized H2O, using SpectraPor® 500‐M.W. cutoff dialysis membrane (Spectrum Laboratories Inc., Rancho Domingo, CA), then dried (Savant SpeedVac, Thermo Electron Corporation, Waltham, MA) and re‐dissolved in 100 μL of assay buffer [1 nmol/L ^125I‐Y‐Ugn in NaHCO3–free HBSS supplemented with 20 mmol/L sodium citrate and 0.75% bovine serum albumin (Sigma, St. Louis, Mo, USA)]. The pH was individually adjusted to 4.5 with NaOH or HCl using a miniaturized glass microelectrode (Microelectrodes Inc., Bedford, NH). Prepared samples were incubated in triplicate for 1 h at 25°C in polypropylene tubes with 20 μL of T84 cell membranes (10–20 μg protein). Samples were then diluted in 1 mL of ice‐cold rinse buffer, rapidly filtered through Whatman GF/C glass microfiber filters presoaked in distilled water, and quickly rinsed twice with 5 mL of ice‐cold rinse buffer (50 mmol/L Tris‐HCl at pH 7.0). Bound radioligand (retained by the filter) was quantified with a gamma counter (Packard Cobra, PerkinElmer Life and Analytical Sciences Inc., Waltham, MA). Ugn concentrations in sample solutions were calculated by interpolation in a standard curve obtained from a dilution series of synthetic rat Ugn incubated and analyzed in parallel with the unknowns. Non‐specific binding was determined by including 10^−5 mol/L unlabeled Y‐Ugn in place of Ugn standards or unknowns.
# All data were plotted as mean ± SEM (or, in the case of n = 2, as mean ± range). Paired t‐tests were used for comparison of Ugn excretion, water consumption, and food consumption. GraphPad Prism 5.0 (LaJolla, CA) was used for analysis of binding data, with formulas derived from the Cheng‐Prusoff equation: cpm bound = NSB + [(B max − NSB)/1 + 10∧[log10(competitor concentration) − log10(IC50)]}], where NSB = nonspecific binding (in the presence of saturating competitor) and B max = maximal binding (in the absence of competitor). […]
# Because GC‐C, the Ugn receptor (Schulz et al. 1990), is activated at the apical membranes of the cells that form the renal tubules (White et al. 1989; Hodson et al. 2006; Santos‐Neto et al. 2006), we can evaluate renal Ugn signaling (the presence of Ugn within the tubule lumen) by measuring the rate at which Ugn is excreted in urine (UUgnV). However, the conventional Ugn bioassay, which measures levels of the peptide by quantifying its stimulatory effect on ligand‐activated cGMP synthesis (Carrithers et al. 1999, 2000a), is compromised by high levels of cGMP that are naturally present in urine. […]
# It can quantify Ugn in the picomolar range (Fig. 2A, black circles), allowing us to perform triplicate measurements of Ugn in rat urine samples as small as 20 μL. […]
# [2] = Tissue (vascular) ligation studies, plasma proUgn; assay type: in vivo, rat
# Protocol: Rats were anesthetized (sodium pentobarbital, 60 mg/kg, ip) and prepared for clearance experiments as previously described (Moss et al. 2010). They received an initial infusion of isotonic saline (6% of body weight), followed by an infusion of 10% mannitol in 0.9% saline at 100 μL/min containing FITC‐labeled inulin (400 μg/mL, Sigma Chemical Co. St Louis, MO). For renal ligations, 5.0 silk thread ligatures were placed loosely around right and left renal arteries, and tightened after baseline data had been collected. For intestinal ligations, the bowels were exteriorized and wrapped in saline‐soaked gauze. […] Blood was sampled every 40 min from the femoral artery.
# ProUgn concentrations in plasma and tissues were measured by quantitative western blotting, as described previously (Moss et al. 2008). Samples were loaded on 4–12% polyacrylamide gels (Invitrogen Corp., Carlsbad, CA), and a standard curve was constructed with known amounts of recombinant rat proUgn (Ironwood Pharmaceuticals, Cambridge, MA). Gels were blotted to nitrocellulose and probed with primary antibody 6910 (Moss et al. 2008; Qian et al. 2008) and an IR dye‐coupled secondary antibody. Imaging and quantification were performed with an Odyssey System (LI‐COR Biosciences, Lincoln, NE). Values were corrected for recovery, as determined in parallel control assays with known amounts of recombinant rat proUgn.
# Previous surveys have identified only two organs (intestine and kidney) that contain levels of proUgn polypeptide sufficient to generate the relatively large circulating pool of proUgn (Moss et al. 2008; Qian et al. 2008). To determine the extent to which each of these organs contributes to the plasma pool, we ligated either the splanchnic or the renal blood supply, and measured the effects of each ligation on circulating proUgn levels. […] For the renal ligations, we also infused each animal with inulin (a reference standard used to assess glomerular filtration rates), and measured plasma inulin at each time point (Fig. 5A, left panel, white symbols). […]
# [3] = cited from earlier work
# From the text: To investigate this in a statistically reliable manner, we obtained single plasma samples from a larger number of individual animals at a specific time of day (3 AM) under each dietary condition. […] Recent speculation has focused on proUgn, rather than Ugn, as the endocrine mediator of this putative signaling axis, because (1) proUgn is by far the most abundant molecular species stored in tissues and circulating in plasma (Moss et al. 2008), and (2) when isotopically labeled recombinant p ...
# [4] = intravascular infusion, rodents; ref none printed in abstract; cited from earlier work
# From the text: Abstract The peptide uroguanylin (Ugn) is expressed at significant levels only in intestine and kidney, and is stored in both tissues primarily (perhaps exclusively) as intact prouroguanylin (proUgn). […] In conjunction with previous studies, this observation critically strengthens the contention that Ugn is an authentic endocrine agent as follows: (1) Ablation of the Ugn gene leads to hypertension (Lorenz et al. 2003; Elitsur et al. 2006), an appropriate phenotype for an animal that lacks an endocrine mechanism involved in electrolyte homeostasis.
# T1 sequence (P25092 24-1073): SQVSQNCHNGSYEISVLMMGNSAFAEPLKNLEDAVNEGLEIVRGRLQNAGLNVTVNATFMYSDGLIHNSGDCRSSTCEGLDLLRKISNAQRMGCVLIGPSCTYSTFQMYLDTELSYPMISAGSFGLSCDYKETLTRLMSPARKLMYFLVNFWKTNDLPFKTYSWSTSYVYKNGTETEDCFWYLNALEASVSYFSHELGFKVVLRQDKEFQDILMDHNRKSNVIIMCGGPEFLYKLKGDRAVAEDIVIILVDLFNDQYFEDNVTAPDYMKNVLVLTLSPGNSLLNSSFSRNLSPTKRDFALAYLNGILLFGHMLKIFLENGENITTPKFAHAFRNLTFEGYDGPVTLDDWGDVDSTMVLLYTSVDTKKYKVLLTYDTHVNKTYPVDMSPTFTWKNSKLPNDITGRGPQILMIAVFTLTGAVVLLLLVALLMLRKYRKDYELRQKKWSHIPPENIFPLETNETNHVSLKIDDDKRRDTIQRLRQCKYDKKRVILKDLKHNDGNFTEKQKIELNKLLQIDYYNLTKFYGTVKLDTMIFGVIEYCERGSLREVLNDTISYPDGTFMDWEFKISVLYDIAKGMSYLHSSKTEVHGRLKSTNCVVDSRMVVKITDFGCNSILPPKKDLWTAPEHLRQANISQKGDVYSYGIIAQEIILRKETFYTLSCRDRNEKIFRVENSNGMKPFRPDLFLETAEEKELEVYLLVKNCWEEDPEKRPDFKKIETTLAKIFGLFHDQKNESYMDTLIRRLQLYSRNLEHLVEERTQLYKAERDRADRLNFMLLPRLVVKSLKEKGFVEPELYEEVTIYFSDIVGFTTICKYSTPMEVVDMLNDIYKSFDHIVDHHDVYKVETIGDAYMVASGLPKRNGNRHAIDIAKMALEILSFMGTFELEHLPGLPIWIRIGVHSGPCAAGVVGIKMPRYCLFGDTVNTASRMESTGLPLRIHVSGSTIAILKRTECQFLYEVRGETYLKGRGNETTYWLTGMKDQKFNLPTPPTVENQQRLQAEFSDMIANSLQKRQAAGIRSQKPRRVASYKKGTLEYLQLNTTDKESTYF
molecule,measurement,setting,value
"CC[C@H](C)[C@@H]1NC(=O)[C@@H]2CSSC[C@@H](C(=O)O)NC(=O)CNC(=O)[C@H]([C@@H](C)O)NC(=O)[C@H](CSSC[C@H](NC(=O)[C@H](CCC(=O)O)NC(=O)[C@H](CC(=O)O)NC(=O)[C@@H](N)[C@@H](C)O)C(=O)N[C@@H](CCC(=O)O)C(=O)N[C@@H](CC(C)C)C(=O)N2)NC(=O)[C@H](C)NC(=O)[C@H](C(C)C)NC(=O)[C@H](CC(N)=O)NC1=O [Ugn, uroguanylin] (H-TDECELCINVACTGC-OH; disulfide 4-12, 7-15)",Ki,[1],1.04 nM
"^125I‐Y‐Ugn: N‐tyrosyl rat Ugn (Y‐Ugn, Bachem Inc.) iodinated as previously described; radioligand (YTDECELCINVACTGC; 125I-iodinated on the added N-terminal Tyr; two disulfides (Cys1-Cys3 and Cys2-Cys4 of the uroguanylin peptide, by convention); The 15-residue C-terminal peptide limits are by convention; check residu)",Kd,"[1]; T84 cell membranes (10–20 μg protein), filtration, gamma counter, R2 0.9659, n = 3",1.5 nM
"CC[C@H](C)[C@@H]1NC(=O)[C@H](CCC(=O)O)NC(=O)[C@@H](NC(=O)[C@@H](NC(=O)[C@H](CC(N)=O)NC(=O)[C@@H]2CCCN2)[C@@H](C)O)CSSC[C@@H]2NC(=O)[C@H](C)NC(=O)[C@H](C)NC(=O)[C@H](Cc3ccc(O)cc3)NC(=O)[C@H](C)NC(=O)[C@H](CSSC[C@@H](C(=O)O)NC(=O)CNC(=O)[C@H]([C@@H](C)O)NC2=O)NC1=O [Gn, guanylin] (H-PNTCEICAYAACTGC-OH; disulfide 4-12, 7-15)",Ki,[1],170 nM
"prouroguanylin (protein, UniProt P70668 22-106, looked up, pro-form, Recombinant rat proUgn, Ironwood Pharmaceuticals; also endogenous propeptide in plasma) pro-form: VYIKYHGFQVQLESVKKLNELEEKQMSDPQQQKSGLLPDVCYNPALPLDLQPVCASQEAASTFKALRTIATDECELCINVACTGC",Plasma proUgn after renal artery ligation,"[2]; endogenous, anesthetized rats, renal artery ligation",rose rapidly
same,Plasma proUgn after splanchnic ligation,"[2]; endogenous, anesthetized rats, splanchnic ligation",fell to barely detectable levels
same,Postligation rate of rise of plasma proUgn relative to inulin,"[2]; renal artery ligation, FITC-inulin infused, percentage basis",nearly identical to that of inulin
same,Time for appearance of nearly all recovered Ugn in urine after proUgn,"[3]; intravascular bolus of exogenous proUgn, ref Moss et al. 2010",30 to 60 min
same,Renal filtration and conversion,"[3]; isotopically labeled recombinant proUgn infused intravascularly, ref Qian et al. 2008","readily filtered from plasma by the kidney, and converted within the kidney to Ugn"
same,Natriuretic response,[4],natriuretic responses in rodents
same,Ki,[1],8900 nM
